A protein production outcome set (Wang et al. 2014)

Assay: label from the status in PepcDB records

For “MLFNRHNKTTDSLQQTIAEQSRLLEAIDRSMAVIEFDLQGNVLRANANFLQTLGYREDQVTGQPHRLFCTPEYVRSSDYQQLWNRLRSGQFESGTFERVASNGQSLWLEASYNPIRDASGAVYKVVKYALDVTARVQEEVEARNKLDAIDRAMAVIEFNLDGSIIGANSNFLSRMGYSLAEIKGKHHRMFCKPELINSSAYQDFWNRLNRGEFFNGQFERIDRHGRTLWLEANYNPVYDASGRLCKVVKYAADVTQQVEKHEQDAQSASQAYHISVQTRKVAEQGTGVIQQAASEMRQIAENIEGSSSLIARLGERSEQITAIVNTIRAIADQTNLLALNAAIEAARAGDQGRGFAVVADEVRQLAARTSGSTAEISSMIDMIQNETQQAIKSMDGTRERAAKGVQLADQAGTVILQIRDGASEAVEAVSMFANERGAP”, the protein production was “failed”.

In the case of “MYTYSLLNLSHCRRQTRKKRKTDHTEGFLMEETKPKTVEDVETVDVYTAKGFLSTGHRYLDVRTNEEFAKSHVEEALNIPYMFKTDEGRVINPDFLSQVASVCKKDEHLIVACNAGGRGSRACVDLLNEGYDHVANMGGGYSAWVDAGFAGDKPPEDLKIACKFRPKEN”, the protein production is reported as “failed”.

In the case of “YLELNEIESIIKDINTKAQKMHSGIHKRFYLFVALMTEFQALNGMRIGEMLAIQNEDIDFDNKSLNINGTIHWFHDESGGFGVKDTTKTESSYRTIGLSSRSCEILKKAILENKKDSKWNDGYLNRNFVFTNHKGNPMQTERFNKILREAAKDVGIDKEVSSHILRHSHISLLSQQGVSLKAIMDRVGHSDHRTTLSIYSHVTEQMDKDMMNKLEQVKLG”, the protein production is reported as “not failed”.

For “MLTQANIPSWYEGLNKSGLTPPGPVFSIVWSILYALLAIVGWVLWCSRNESEMRSVFYLYSVQMLMNWAWTPLFFVLHWTGLSFLWILVMAGLTGLLMFSQTNKKKSLAILLLPYLIWLLFAAYLNGVIWLLN”, the protein production was “failed”.

With “MPGTNNEATRKEEVKKIVENRRRKAELIREQQIKKRNTIIAIGVGILVVLILVMVLAKSCSSGKKPAKTSATTAKQITTVAQTTVQETTTAEEYMYTTDVLNLRKSASAKSKLITQIGAGKKVQVISENGKWCQIKYGKDTGYVMKKYLSYSNMLD” the protein production was “failed”.

In the case of “SEDINRNPLLPTKEDEKMDGVIYGAYLPNLEKSVIPIGTASESTEPVNRYQIGVNLAGDAWAGYMSPRDNKFNGSKNFTNYFMYENWVNYVYSFMVTDVYSPWMQIKRISQDEGTRNDEIYALAQIIKIAALHRTTDMFGPIPYSQVGKGSFKVAYDSQESVYRSFLKELEEAVQTLDDYSNKSKEVLPAFDIVYNGDVNKWMRFANSLMLRLAIRVRFADAGLAKEYAEKAVKHPAGLINSKELAAQMGKGAGLQMKNPLKVINEEYNDTRMGATIYSYLAGYNDARAAVYFVKNNGFKAVRCGIAKSGDAYNGFTRPNVHEDDPLYWMKASEVCFLKAEGALAGFDMGGSAGDFYNAGIRMSFSENGLDNSSAETYLKDSTRKPANYTDTSNGELSANAPSSITIRWENGATEEEKLERIITQKYLAIFPNGQEAWTEWRRTGYPRQIVVAENKTNSAVLIGNGYDLGGVRRLPYPRTEYEQNGENLHNAISQYLGGVDNAATKVWWDKKSK”, the protein production is reported as “not failed”.

In the case of “MDKDLKLRPRIKRLLSPAVMQAELLGGAAWLWVLMLGPSVKINLFTCFLTLSLACICWIQHTTTVFCIWRLLGIAYMLLLATGFFYLMDGDPEINIFALPLTITLAISSALLFVKFLDYLLSAVFVWLLTWLCWQEGVYGEIGIYVWIFCVASVCIGSVLNISYIKTLRAVLSLESKFRELAETDYLTSIPNRRAFMESFDSLIKGGESGYLIMLDIDNFKLINDRHGHEIGDRILCSMAACLRATSGSHCAGRIGGEEFGVLITGGDELTACDYILRLLETVRANFDPPYNYSCSVGMVRFSAASTMSEALSMADKSMYIAKRNGKDCAYFEGQEIVSFLFDDSKLKEKYPTETLSENTYQTDTQ”, the protein production is reported as “failed”.

With “MGHHHHHHSHMPDHGDWTYEEQFKQLYELDGDPKRKEFLDDLFSFMQKRGTPVNRIPIMAKQVLDLFMLYVLVTEKGGLVEVINKKLWREITKGLNLPTSITSAAFTLRTQYMKYLYPYECEKRGLSNPNELQAAIDSNRREGRR” the protein production was “not failed”.

With “MMKETQQWTSKIGFVLAAAGAAVGLGAIWKFPYVAGNGGGGAFFLVFLLLTLFIGMPLLIAEFVIGRSTQKEAVTAYKVLVPNSKLYPWIGRMGVVTCFSVLSFYSVVGGWILLYLYYSVTGSFWNGAADYGQLFGETISNPLSAIGAQFIFMLCTIFVVSKGVEKGIEKASKYMMPLLFILFIAIIVRALTLDGAFAGVEFFLKPDFSKLTADTILYAMGQSFFSLTVGASVMVTYSSYLKKEEHLAKSATSIVSLTVFVTVLAGLAIFPAIFALGVKPTEGPGLLFIVLPAVFAKIPFGQFFFIMFLILFFFATLTSAISMLEIVVASVAKGNEKKRPSASLLIGILIFAVGIPSALSFGIMSDVKIFGKTFFDLVDFSVSNVLLPLGVLAISLFVPNKMSKELLMKELEVTETKGKTLFNIWFFLLRYVIPVTVIIVFLNAIGVFKMFA” the protein production was “failed”.

For “GSLKCILLNQAEELPIEFLPKDGVYGKGKLFDSRNMEIENFTESDILQDARRAAEAHRRARYRVQSIVRPGITLLEIVRSIEDSTRTLLKGERNNGIGFPAGMSMNSCAAHYTVNPGEQDIVLKEDDVLKIDFGTHSDGRIMDSAFTVAFKENLEPLLVAAREGTETGIKSLGVDVRVCDIGRDINEVISSYEVEIGGRMWPIRPISDLHGHSISQFRIHGGISIPAVNNRDTTRIKGDSFYAVETFATTGKGSIDDRPPCSHFVLNTYKSRKLFNKDLIKVYEFVKDSLGTLPFSPRHLDYYGLVKGGSLKSVNLLTMMGLLTPYPPLNDIDGCKVAQFEHTVYLSEHGKEVLTRGDDY”, the protein production was “not failed”.

In the case of “MFSMILSGLICGALLGFVMQRGRFCLTGGFRDMYIVKNNRMFYALLIAISVQSVGVFALIQAGLLTYEAGAFPWLGTVIGGYIFGLGIVLAGGCATGTWYRAGEGLIGSWIALFTYMVMSAVMRSPHASGLNQTLQHYSTEHNSIAETFNLSVWPLVAVLLVITLWVVMKELKKPKLKVATLPPRRTGIAHILFEKRWHPFVTAVLIGLIALLAWPLSEATGRMFGLGITSPTANILQFLVAGDMKYINWGVFLVLGIFVGSFIAAKASREFRVRAADAQTTLRSGLGGVLMGFGASIAGGCSIGNGLVMTAMMTWQGWIGLVFMILGVWTASWLVYVRPQRKARLATAAAN”, the protein production is reported as “failed”.

In the case of “LLLEIGLEEMPARFLNESMVQLGDKLTGWLKEKNITHGEVKLFNTPRRLAVFVKDVAEKQDDIKEEAKGPAKKIALDADGNWTKAAIGFSKGQGANVEDLYIKEVKGIEYVFVQKFQAGQETKSLLPELSGLITSLHFPKNMRWGNEDLRYIRPIKWIVALFGQDVIPFSITNVESGRTTQGHRFLGHEVSIESPSAYEEQLKGQHVIADPSVRKQMIQSQLETMAAENNWSIPVDEDLLDEVNHLVEYPTALYGSFESEFLSIPEEVLVTTMKEHQRYFPVKDKNGDLLPHFITVRNGNSHAIENVARGNEKVLRARLSDASFFYKEDQKLNIDANVKKLENIVFHEELGSLADKVRRVTSIAEKLAVRLQADEDTLKHVKRAAEISKFDLVTHMIYEFPELQGIMGEKYARMLGEDEAVAAAVNEHYMPRSAGGETPSTFTGAVVAMADKLDTIASFFSIGVIPTGSQDPYGLPRQASGIVAILLDRNWGISFEELLTFVQTDKENELLDFFTQRLKYVLNAEQIRHDVIDAVLESSELE”, the protein production is reported as “not failed”.

With “MSTDQTPTAAGSGFSYTLTRTLDAPAARVWQAWTTPDQYAQWAYAVPGSVEMDVRPGGTWKATMRTPDGTEFPLTGSYIEVAEHRALTIGMNVPGRPDPATMTVELAEEGPRNTVITLRQTCDTAEERDGAEQGSGMLLDGLTGFLAGGKQG” the protein production was “failed”.

With “MSISWSMSRNMFKLAHISDVHLGPLPRLSIQELFSKRITGFVNWHRNRRKHLFASTLDLLLDDIRTHRADHLAVTGDLVNLASGIEIRAAAAWLRALGDPADTSVVPGNHDAYVPGAYEKSMRAWYDYVRGDLAPPQWQEDRRIFPYLRVRDKVAIVGCSTAVATPPFAASGFFSARQARDTVNMLRAAGEAGLFRVVMIHHPPIRGATAFHKRMIGIRRFAAVISTGGAELVLHGHTHLNTLHWLRGQVQPVPVVGIASASQGPGSIKPPAAYNLFSIDGAPGAWELTGERFSLNRTGDAMMPESVDIFAPLEHHHHHH” the protein production was “failed”.

With “MDKRIATIILSIVNIIGIFEFPLYESFIGFFFISSALSILYESQLSLIVPTVLFASLVLLHIITIQLQKLIILSILMLISIIGKNNKWIYSILITLAPGLIINNLYLLLIVLALLIPLLIKLGGEPRAIIISGILYLIYSGIIFPNNEALANQISQISYFYLMFGIIGIIVEDKRITRITLRKILPYLSFIPASFASIMLGYPSDSSFIYWSASSFYFSHLYLPWIYEIGYNSNQHLIASWFLAYLLTLIIKNPLITAEVFLGIFTFLSGLISYYVFKRLNLKYPLLFSLLYQINIFNPIISHSISVFSYAFLPLVLFFAYNKNKVLYSILTLTAASSIPIFISTLVIPLVYRRYYFLLYALGVNAFWLIPFLIFGYDKFTFNVSNIEILISIILVSISVLLYQLRFKNIEILYMIFISFVLLILGINTGPLILLATILTLGSLRDISILYLTLLSGLIILSATSFSYGVISGYANTTFYTYNLPNLPKPGEYGFGITTLVNDLNLTASGMPTESISYNVRYFIYNSRVIENPLYFGFPIPAIPNYTPQLTFSYIYSNSSVKVIYSPFNKPLGLMVYSNVTPSKISIVFPTRIENISGIKGLVKNYTIQIITNTSLTIIGGKVTVDNKSIFSSYYKPKIVTSIMIGEITEVIDSNYSIYLPIHESLTINGKVVNHPIILPPGKYTIVISDEKIEYVSYASIFLTIVSLVLLIRRGMKV” the protein production was “failed”.

For “MGTRRRRGRKAIAGLPGYLLLLVLVLVWLFQELRPGPVPPAETGEAEVYFMPEEGPRAKARLLALMDGARESLEGAFYEFRDLEVAQGLLRAKARGVRVRLYGESDYREDFRRYLVAASLGQREEPPRVRFAELKERVKPLSLDCEEVVGIPICYDEREGFMHHKFLVVDGRAVWTGSTNMTWNAFARNNENSLLLPSPTLAQGYAREFEALFGGQKEGLGQPVAFALEGVEGVAYFSPRGGRLAREALLKRLSEAQREVLVAAFVLTDREVLEALLQARRRGAEVKVLLETRNLGTSREEALLEEGLEVRQDANPYTMHHKVMLLDGTYVVTGSYNFSVRAHEVNNENLLVLKSPSLAERYRKEVLRLWEAGSPL”, the protein production was “failed”.

For “MNRAFSRKKDKTWMHTPEALSKHFIPYNAKFLGSTEVEQPKGTEVVRDAVRKLKFARHIKKSEGQKIPKVELQISIYGVKILEPKTKEVQHNCQLHRISFCADDKTDKRIFTFICKDSESNKHLCYVFDSEKCVSIPDVVGWFVLFYKPGIVLLLALAKYLKMNNFL”, the protein production was “failed”.

With “MEWEVKEDGYSEEVSSLFLDHLPSKILEAKNRAEQLLTLQEKPILDIAEYNHAKVLAAFQEERVSTYHLQGTTGYGLGDSGRETLDRVMARILGTEAALVRGQFVSGTHAIATALFGVLRPGDHFISVTGDPYDTLEEVIGIRGTGQGSLKDFGVSYDSVPLSEEGTIQHSLVSQGIKPNTKMLILQRSRGYAWRNSLPMEQIAAFVAYVREHFPHLIIFVDNCYGELVEKCEPGDVGADLMAGSLIKNLGGSLAPTGGYIAGRQELVEKAACRLTAPGIGGEVGATLSWQLQFFQGLFFSPLTVSEAIRGAIFSAAFWQALGFEVNPLPDALRTDLIQAVKLNSREAMIAFCQGFQKGSPVDSHVLPIPSGMPGYEDEVIMAGGTFIQGATSEFSADGPMRDPFIAYQQGGVSMNYIKFGNLLAAQKLWEQGLLK” the protein production was “failed”.

In the case of “MKLERKNSGIIFLIFGVVFVLNALNPVMELLYIKAKGEIAEAKIVAYDFIQRSSRSGRGSSYKYIPIIEFFDGKEIVQVPVTMNSLNEELDIIGLDVKVSYLKNTPSKVIIDDKLFWLYEISNSLVVVGSFLLMVMLSQMSVETYRGRELTFNVPTKNKIIFLISGLPGVIGTFLSFYYGFITLKYNGLGFTSGTLILSLLIIGVYLLGIVNFLKIKNNYWG”, the protein production is reported as “failed”.

For “MGEYYHATVNGVVEYGAFVDLSEHVSGLIHESTYSGDPDLAVDDDVIVHLSAVRDNGDLSFEFVDPEEYRTEQRSHAYERTTADAVGLEHHHHHH”, the protein production was “not failed”.
